The values below come from US20130071417A1 (GOVERNING COUNCIL OF THE UNIVERSITY OF TORONTO, published 2013).

B2: FLAG-tagged rCEA N (CEA residues 1-214 with His-tag and FLAG epitope) (other, human, UniProt P06731 35-248, looked up, not shown: small tags and cut ends)
chain: KLTIESTPFNVAEGKEVLLLVHNLPQHLFGYSWYKGERVDGNRQIIGYVIGTQQATPGPAYSGREIIYPNASLLIQNIIQNDTGFYTLHVIKSDLVNEEATGQFRVYPELPKPSISSNNSKPVEDKDAVAFTCEPETQDATYLWWVNNQSLPVSPRLQLSNGNRTLTLFNVTRNDTASYKCETQNPVSARRSDSVILNVLYGPDAPTISPLNTS
notes: range 1-214; Made in E. coli; The extra C-terminal CEA residues were added for stability and yield; also called FLAG-tagged rCEA N domain; FLAG-tagged N domain

For assay [1], the target named is T1, His-tagged rCEA A3B3 domain (residues 445-656, C-terminal His-tag) (human, UniProt P06731 479-690).
T1 construct: also called rCEA A3B3 fragment
T1 sequence: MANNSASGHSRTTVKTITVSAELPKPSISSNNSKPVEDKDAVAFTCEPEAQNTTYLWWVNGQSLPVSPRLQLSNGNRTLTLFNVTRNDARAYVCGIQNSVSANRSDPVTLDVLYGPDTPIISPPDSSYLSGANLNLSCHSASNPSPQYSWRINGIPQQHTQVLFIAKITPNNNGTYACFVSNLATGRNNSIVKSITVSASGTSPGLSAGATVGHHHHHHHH
Kind of assay: ELISA; untagged rCEA N coated, His-tagged module in solution, anti-His HRP detection. (ELISA stands for enzyme-linked immunosorbent assay.)

For assay [2], the target named is B2. Kind of assay: ELISA; target coated (2 µg per well), FLAG-tagged rCEA N titrated, anti-FLAG M2 HRP detection. The procedure:
(§1) Briefly, 96-well flat-bottomed Falcon microtiter plates (Becton-Dickinson Biosciences; Franklin Lakes, N.J.) were coated with 2 μg of purified CEA modules or full length CEA per well. After blocking with PBS containing Tween (0.05% v/v) and bovine serum albumin (1% w/v), the plates were then incubated for one hour at room temperature with increasing concentrations of the FLAG-tagged rCEA N diluted in PBS-Tween (0.05%; 100 μL). The presence of bound FLAG-tagged rCEA was detected by incubating the plates for 1 hour at room temperature with horseradish peroxidase (HRP) coupled anti-FLAG monoclonal antibody M2 (1:5,000 dilution; Sigma-Aldrich). The chromogenic HRP substrate 3,3′,5,5′-tetramethylbenzidine (TMB; Sigma) was used to measure at 450 nm the amount of bound FLAG-tagged N domain.

Assay [3] has as its target T2, full length tumour glycoform of human CEA (Sigma-Aldrich) (human, UniProt P06731 35-685, glycosylated (tumour glycoform)).
T2 construct: mature; Bought protein; also called FL-CEA; full length CEA
T2 sequence (looked up): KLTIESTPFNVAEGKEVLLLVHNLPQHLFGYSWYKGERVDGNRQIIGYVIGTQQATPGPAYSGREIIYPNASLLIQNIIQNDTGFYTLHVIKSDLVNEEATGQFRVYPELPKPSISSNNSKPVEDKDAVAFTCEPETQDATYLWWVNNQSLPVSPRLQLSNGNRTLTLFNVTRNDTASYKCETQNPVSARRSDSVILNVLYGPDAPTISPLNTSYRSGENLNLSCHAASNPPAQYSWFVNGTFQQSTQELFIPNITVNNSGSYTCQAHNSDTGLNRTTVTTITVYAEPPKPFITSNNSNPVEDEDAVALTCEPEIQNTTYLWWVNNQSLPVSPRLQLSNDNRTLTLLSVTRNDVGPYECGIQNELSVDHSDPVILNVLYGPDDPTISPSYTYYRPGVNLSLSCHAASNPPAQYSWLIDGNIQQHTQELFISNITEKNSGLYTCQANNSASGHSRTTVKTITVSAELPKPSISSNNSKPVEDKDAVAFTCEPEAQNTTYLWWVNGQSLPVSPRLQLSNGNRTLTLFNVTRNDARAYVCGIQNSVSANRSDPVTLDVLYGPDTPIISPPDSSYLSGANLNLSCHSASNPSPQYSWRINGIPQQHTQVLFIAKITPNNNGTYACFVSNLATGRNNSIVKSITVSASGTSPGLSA
The assay is described as above. The procedure:
as §1

The target in assay [4] is T1, His-tagged rCEA A3B3 domain (residues …). The description is as above. As for the experimental part: as §1

B1: untagged rCEA N domain (cleaved rCEA N, residues 1-132) (other)
chain: KLTIESTPFNVAEGKEVLLLVHNLPQHLFGYSWYKGERVDGNRQIIGYVIGTQQATPGPAYSGREIIYPNASLLIQNIIQNDTGFYTLHVIKSDLVNEEATGQFRVYPELPKPSISSNNSKPVEDKDAVAFT
notes: Made in E. coli, so it has no N-glycans; also called WT rCEA N domain; untagged WT rCEA N domain
Turning to B1, the binding result in assay [1] and in assay [2] was “binds” in each case.
In the case of B2, the binding result in assay [3] and in assay [4] was “binds” each time.
